Test results from the supplement of paper PMC10724198.
± gives the standard deviation of the averaged measurements.

These sequences were tested on Saccharomyces cerevisiae (assay: protein stability index of tFT-peptide fusion (C-terminal peptide) (PSI (0-1 scale)); higher = more stable (slower turnover)). Details: genetic background: wild type; temperature: 30 C.
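Note: PSI is a weighted mean of sequencing reads over stability bins, variants kept only with over 10 reads, mCherry proximal and sfGFP distal, peptide attached via GGGS linker.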

Point of comparison: HYVQARMRSAVP, protein stability index 0.636 ± 0.091. Against it:
- GQYEPEWKRLYC — within error, 0.64 ± 0.011
- WCVEGVWRVRGW — within error, 0.649 ± 0.044
- IPDPSPFTCPNV — within error, 0.557 ± 0.02
- PPPLPSPAPPPP — within error, 0.709 ± 0.053
- RVPNLYLRSRKI — within error, 0.68 ± 0.034
- GGGLGGGGGVWG — within error, 0.7104 ± 0.004
- FLTSTLVSSGGD — within error, 0.676 ± 0.034
- LVRGFVDKYVIS — within error, 0.652 ± 0.01
- EWVCRAGVQGGA — within error, 0.691 ± 0.017
- LPSPPPSSPLPP — within error, 0.56 ± 0.048
- VWCVGRVGYEGE — within error, 0.783 ± 0.1
- HPAPVPSAPSDA — within error, 0.678 ± 0.054
- EYVDVDVQDCRG — within error, 0.692 ± 0.035
- PIRAITQRSDGG — within error, 0.682 ± 0.045
- RPPHQAPPLPPS — within error, 0.704 ± 0.062
- PPRPPPHPPLPP — within error, 0.678 ± 0.0057
- GGVRSLLWAVVW — within error, 0.583 ± 0.009
- PLFAYCLIFPML — within error, 0.533 ± 0.018
- EVTRAGEDAGDG — within error, 0.643 ± 0.023
- AGRFAPAEARVF — within error, 0.622 ± 0.056
- SSPVPLPPNPPA — within error, 0.696 ± 0.038
- YVEGSWSSPRCR — within error, 0.675 ± 0.12
- QTRKRESPAMVT — within error, 0.639 ± 0.02
- GPRRVAVAGETS — within error, 0.715 ± 0.037
- DSTTGALILLPV — within error, 0.692 ± 0.021
- TYSTLHILLSSS — within error, 0.602 ± 0.014
- RVGGGGWPSGVV — within error, 0.747 ± 0.047
- GTKEYKKNRKII — within error, 0.653 ± 0.03
- DEMNEGHVPPGV — within error, 0.718 ± 0.071
- YPKGKHSQDSHV — within error, 0.656 ± 0.039
- RLCRQPPSLLPP — within error, 0.6958 ± 0.0053
- WGFWLCSGNWST — within error, 0.725 ± 0.0088
- SPTAHAPALPSP — within error, 0.692 ± 0.049
- VTECLRQWERLG — within error, 0.545 ± 0.045
- VKTETNTDGKKR — within error, 0.67 ± 0.15
- HCSGGFRCPPLV — within error, 0.6862 ± 0.0046
- PGLQFPIWGVKG — within error, 0.71 ± 0.045
- LPSSPFPPLPVT — within error, 0.6889 ± 0.0042
- PLPPPPLPPLPP — within error, 0.702 ± 0.028
- LLAAVSPSHRAL — within error, 0.724 ± 0.021
- PVITPPSSTPPI — within error, 0.6815 ± 0.0021
- QKKTNKKTTRNE — within error, 0.691 ± 0.013
- DGSGPSWGRKGR — within error, 0.6942 ± 0.0043
- FLTVDGKLMRGP — within error, 0.699 ± 0.021
- HDEGLEGLTVVF — within error, 0.675 ± 0.019
- LGRLFPTSLPPR — within error, 0.739 ± 0.17
- GKRRTIQPGQKM — within error, 0.698 ± 0.032
- HLPPPPRITVVP — within error, 0.716 ± 0.073
- SPPPLPPTPPPL — within error, 0.7135 ± 0.0055
- FVSSFSCVGLVL — within error, 0.644 ± 0.08
- PCMLSEATQQAH — within error, 0.668 ± 0.049
- SQTKRINSEKNN — within error, 0.654 ± 0.039
- GDYKESAFRMDG — within error, 0.761 ± 0.043
- FPFLAPSLVLPT — within error, 0.569 ± 0.012
- GEAWWLRGGGER — within error, 0.757 ± 0.03
- HWHLIKIKLKEK — within error, 0.742 ± 0.043
- STDQFFLFFCVG — within error, 0.735 ± 0.2
- EKQIREERRKIE — within error, 0.704 ± 0.062
- KTKEYKYEKRKT — within error, 0.596 ± 0.027
- SPLFFPSSPPYP — higher, 0.751 ± 0.023
- TSETLLTLSTLT — within error, 0.669 ± 0.04
- RFGSLKWGRGCI — within error, 0.6759 ± 0.0044
- GLGGAWACGGGR — within error, 0.719 ± 0.11
- VWGGLGGGVGRA — within error, 0.668 ± 0.014
- PLIASPQPPFPT — within error, 0.6692 ± 0.0036
- GVCLQGRRASGE — within error, 0.693 ± 0.091
- CFCSLLSPSLFL — within error, 0.751 ± 0.091
- FRRRYGCLLRGE — within error, 0.6573 ± 0.004
- HLYARHCPPPNR — within error, 0.677 ± 0.052
- GTVSEGAMSVGF — within error, 0.809 ± 0.11
- DICFGLLPPWPA — within error, 0.755 ± 0.057
- ETVIQRFLSGHI — within error, 0.699 ± 0.017
